Measured values taken from the FLAb antibody collection (doi:10.7554/elife.23156).

B1: scFv; the commonest letter at each place (parent)
chain 1: EVKLDETGGGLVQPGRPMKLSCVASGFTFSDYWMNWVRQSPEKGLEWVAQIRNKPYNYETYYSDSVKGRFTISRDDSKSSVYLQMNNLRVEDMGIYYCTGSYYGMDYWGQGTSVTVS
chain 2: DVVMTQTPLSLPVSLGDQASISCRSSQSLVHSNGNTYLRWYLQKPGQSPKVLIYKVSNRFSGVPDRFSGSGSGTDFTLKISRVEAEDLGVYFCSQSTHVPWTFGGGTKLEIK

Key:
[1] = variants of: B1; experiment: Kd (Tite-Seq); details: with fluorescein; format: scFv 4-4-20, heavy + light
[2] = variants of: B1; experiment: yeast surface expression (ratio to wild type); higher = more expressed; details: format: scFv 4-4-20, heavy + light

For chain 1 EVKLDETGGGLVQPGRPMKLSCVASGFTFSDYWMNWVRQSPEKGLEWVAQIRNKPYNYETYYSDSVKGRFTISRDDSKSSVYLQMNNLRVEDMGIYYCTGSYWGMDYWAQGTSVTVS chain 2 DVVMTQTPLSLPVSLGDQASISCRSSQSLVHSNGNTYLRWYLQKPGQSPKVLIYKVSNRFSGVPDRFSGSGSGTDFTLKISRVEAEDLGVYFCSQSTHVPWTFGGGTKLEIK [chain 1 Y103W G109A], which Kd [1] is on record?
The Kd was at least 10 µM.

And the yeast surface expression [2]?
Its yeast surface expression is 0.557.

Which Kd [1] does the source give for chain 1 EVKLDETGGGLVQPGRPMKLSCVASGFTFSDYWMNWVRQSPEKGLEWVAQIRNKPYNYETYYSDSVKGRFTISRDDSKSSVYLQMNNLRVEDMGIYYCTGSQYLMDYSGQGTSVTVS chain 2 DVVMTQTPLSLPVSLGDQASISCRSSQSLVHSNGNTYLRWYLQKPGQSPKVLIYKVSNRFSGVPDRFSGSGSGTDFTLKISRVEAEDLGVYFCSQSTHVPWTFGGGTKLEIK [chain 1 Y102Q G104L W108S] here?
The Kd was at least 10 µM.

And the yeast surface expression [2]?
The yeast surface expression was 0.348.

What does the source list for chain 1 EVKLDETGGGLVQPGRPMKLSCVASGFTWVDYWMHWVRQSPEKGLEWVAQIRNKPYNYETYYSDSVKGRFTISRDDSKSSVYLQMNNLRVEDMGIYYCTGSYYGMDYWGQGTSVTVS chain 2 DVVMTQTPLSLPVSLGDQASISCRSSQSLVHSNGNTYLRWYLQKPGQSPKVLIYKVSNRFSGVPDRFSGSGSGTDFTLKISRVEAEDLGVYFCSQSTHVPWTFGGGTKLEIK [chain 1 F29W S30V N35H]?
Kd [1]: ≥ 10 µM; yeast surface expression [2]: 0.547

What does the source list for chain 1 EVKLDETGGGLVQPGRPMKLSCVASGFTFSDYWMNTMRQSPEKGLEWVAQIRNKPYNYETYYSDSVKGRFTISRDDSKSSVYLQMNNLRVEDMGIYYCTGSYYGMDYWGQGTSVTVS chain 2 DVVMTQTPLSLPVSLGDQASISCRSSQSLVHSNGNTYLRWYLQKPGQSPKVLIYKVSNRFSGVPDRFSGSGSGTDFTLKISRVEAEDLGVYFCSQSTHVPWTFGGGTKLEIK [chain 1 W36T V37M]?
Kd [1]: ≥ 10 µM; yeast surface expression [2]: 0.422

For chain 1 EVKLDETGGGLVQPGRPMKLSCVASGFTFSDYWMNWVRQSPEKGLEWVAQIRNKPYNYETYYSDSVKGRFTISRDDSKSSVYLQMNNLRVEDMGIYYCTGRYYGMDYWGQGTSVTVS chain 2 DVVMTQTPLSLPVSLGDQASISCRSSQSLVHSNGNTYLRWYLQKPGQSPKVLIYKVSNRFSGVPDRFSGSGSGTDFTLKISRVEAEDLGVYFCSQSTHVPWTFGGGTKLEIK [chain 1 S101R], which Kd [1] is on record?
Its Kd is at least 10 µM.

What about the yeast surface expression [2] of the same variant?
Its yeast surface expression is 0.731.

With chain 1 EVKLDETGGGLVQPGRPMKLSCVASGFTFPDYWFNWVRQSPEKGLEWVAQIRNKPYNYETYYSDSVKGRFTISRDDSKSSVYLQMNNLRVEDMGIYYCTGSYYGMDYWGQGTSVTVS chain 2 DVVMTQTPLSLPVSLGDQASISCRSSQSLVHSNGNTYLRWYLQKPGQSPKVLIYKVSNRFSGVPDRFSGSGSGTDFTLKISRVEAEDLGVYFCSQSTHVPWTFGGGTKLEIK [chain 1 S30P M34F] as the variant, how does the Kd [1] read?
The Kd was 0.00184 µM.

What about the yeast surface expression [2] of the same variant?
The yeast surface expression was 1.2.

What does the source list for chain 1 EVKLDETGGGLVQPGRPMKLSCVASGFTFSDYWMNWVRQSPEKGLEWVAQIRNKPYNYETYYSDSVKGRFTISRDDSKSSVYLQMNNLRVEDMGIYYCTTSHYGMMYWGQGTSVTVS chain 2 DVVMTQTPLSLPVSLGDQASISCRSSQSLVHSNGNTYLRWYLQKPGQSPKVLIYKVSNRFSGVPDRFSGSGSGTDFTLKISRVEAEDLGVYFCSQSTHVPWTFGGGTKLEIK [chain 1 G100T Y102H D106M]?
Kd [1]: ≥ 10 µM; yeast surface expression [2]: 1.02

Which Kd [1] does the source give for chain 1 EVKLDETGGGLVQPGRPMKLSCVASGFTFSDYWMNWVRQSPEKGLEWVAQIRNKPYNYETYYSDSVKGRFTISRDDSKSSVYLQMNNLRVEDMGIYYCTGSYYYLDYWGQGTSVTVS chain 2 DVVMTQTPLSLPVSLGDQASISCRSSQSLVHSNGNTYLRWYLQKPGQSPKVLIYKVSNRFSGVPDRFSGSGSGTDFTLKISRVEAEDLGVYFCSQSTHVPWTFGGGTKLEIK [chain 1 G104Y M105L] here?
Its Kd is at least 10 µM.

And the yeast surface expression [2]?
Its yeast surface expression is 0.44.

Which results are given for chain 1 EVKLDETGGGLVQPGRPMKLSCVASGFTFSDYWMNWVRQSPEKGLEWVAQIRNKPYNYETYYSDSVKGRFTISRDDSKSSVYLQMNNLRVEDMGIYYCTGSSYGMDWWGQGTSVTVS chain 2 DVVMTQTPLSLPVSLGDQASISCRSSQSLVHSNGNTYLRWYLQKPGQSPKVLIYKVSNRFSGVPDRFSGSGSGTDFTLKISRVEAEDLGVYFCSQSTHVPWTFGGGTKLEIK [chain 1 Y102S Y107W]?
Kd [1]: 0.00128 µM; yeast surface expression [2]: 0.747

For chain 1 EVKLDETGGGLVQPGRPMKLSCVASGFTFSDYWMNWVRQSPEKGLEWVAQIRNKPYNYETYYSDSVKGRFTISRDDSKSSVYLQMNNLRVEDMGIYYCTFIYYGMDYWGQGTSVTVS chain 2 DVVMTQTPLSLPVSLGDQASISCRSSQSLVHSNGNTYLRWYLQKPGQSPKVLIYKVSNRFSGVPDRFSGSGSGTDFTLKISRVEAEDLGVYFCSQSTHVPWTFGGGTKLEIK [chain 1 G100F S101I], which Kd [1] is on record?
The Kd was at least 10 µM.

And the yeast surface expression [2]?
The yeast surface expression was 0.501.

For chain 1 EVKLDETGGGLVQPGRPMKLSCVASGFTFNDYWINWVRQSPEKGLEWVAQIRNKPYNYETYYSDSVKGRFTISRDDSKSSVYLQMNNLRVEDMGIYYCTGSYYGMDYWGQGTSVTVS chain 2 DVVMTQTPLSLPVSLGDQASISCRSSQSLVHSNGNTYLRWYLQKPGQSPKVLIYKVSNRFSGVPDRFSGSGSGTDFTLKISRVEAEDLGVYFCSQSTHVPWTFGGGTKLEIK [chain 1 S30N M34I], which Kd [1] is on record?
Its Kd is 0.00293 µM.

What about the yeast surface expression [2] of the same variant?
Its yeast surface expression is 0.954.

For chain 1 EVKLDETGGGLVQPGRPMKLSCVASGFTHSDYWMNCVRQSPEKGLEWVAQIRNKPYNYETYYSDSVKGRFTISRDDSKSSVYLQMNNLRVEDMGIYYCTGSYYGMDYWGQGTSVTVS chain 2 DVVMTQTPLSLPVSLGDQASISCRSSQSLVHSNGNTYLRWYLQKPGQSPKVLIYKVSNRFSGVPDRFSGSGSGTDFTLKISRVEAEDLGVYFCSQSTHVPWTFGGGTKLEIK [chain 1 F29H W36C], which Kd [1] is on record?
The Kd was at least 10 µM.

What about the yeast surface expression [2] of the same variant?
Its yeast surface expression is 0.281.
